The source of these data is US20170115291A1, “Activating JAK Kinase Biomarkers Predictive of Anti-Immune Checkpoint Inhibitor Response” (Dana-Farber Cancer Institute, Inc., priority 2014, published 2017).

For the experiment, the system named is CD14+ myeloid cells. Nature of the experiment: PBMC stimulation with IFNγ, PD-L1 on CD14+ myeloid cells by flow cytometry. Particulars: JAK3 V722I positive patients vs JAK3 P132T positive patient or blood donor controls, 250 ng/ml, 48 h. In kind it is cell-based, human. The procedure: Peripheral blood mononuclear cells (PBMCs) from patients identified as having JAK3 V722I or P132T variants (see sequencing section above) and healthy donors were isolated from fresh blood and platelet-depleted blood collars, respectively, by Ficoll method. PBMCs were plated at a density of 7.5×10^5 cells/ml in a 48-well plate and stimulated with 250 ng/ml IFNγ (PBL Interferon Source). No stimulation controls were set-up for each donor. At 48 h post-stimulation, cells were treated with 2 mM EDTA and collected for flow cytometry to assess for PD-L1 expression on CD14+ myeloid cells. Cells were stained with Live/Dead yellow viability dye (Invitrogen), as well as antibodies (BD Biosciences) against CD14 (M5E2), CD11b (ICRF44), and PD-L1 (MIH1) for 30 min at 4 C, and then fixed in BD Cytofix® buffer prior to analyses on BD LSR Fortessa SORT® HTS flow cytometer. Given the need to compare the difference between two means in relation to the variation in the data, a t-test was used to compare PD-L1 inducibility between V722I and non-V722I monocytes.

B1: IFN-γ: cytokine known to trigger PD-L1 in the tumor immune microenvironment (protein, UniProt P01579 24-161, looked up)
Interferon gamma: QDPYVKEAENLKKYFNAGHSDVADNGTLFLGILKNWKEESDRKIMQSQIVSFYFKLFKNFKDDQSIQKSVETIKEDMNVKFFNSNKKKRDDFEKLTNYSVTDLNVQRKAIHELIQVMAELSPAAKTGKRKRSQMLFRG
With B1, the “Expression of PD-L1 on CD14+ myeloid cells” value is given as “modest but significantly increased”.
